Reference: patent US20260042834A1 (HBM ALPHA THERAPEUTICS, published 2026)
Where a chain is given by its changes, count along the chain named. Like-named read-outs stand apart in the source and are kept apart here. Values belong to the binder of their own block, whether it stands above or below them.

What was measured:
[1] = molecular target: T1, corticotropin-releasing hormone (CRH) peptide (human and mouse, not fully specified); assay: cell-based or functional assay
T1 peptide: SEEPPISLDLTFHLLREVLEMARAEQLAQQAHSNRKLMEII

CRH (CT-Biotin) = molecular target: T2, CRH (CT-Biotin) (human and mouse, biotin on the added C-terminal K (-K-Biotin)); assay: ELISA, C-terminally biotinylated CRH on streptavidin-coated plate
T2 construct: also called Peptide 4 (CRH-Biotin); C-terminally biotinylated corticotropin-releasing hormone
T2 peptide: T1 peptide
Procedure: (§1) Streptavidin (Thermo, Cat: 21125) was diluted in PBS to a concentration of 2 μg/ml. 100 μl of diluted streptavidin was added per well to ELISA microplates, and the plates were incubated overnight at 4° C. […] 100 μL of 3,3′,5,5′-tetramethylbenzidine (TMB) substrate (Biopanda, Cat: TMB-S-003) was added, and the plates were incubated at room temperature for 15 minutes. 100 μL of ELISA stopping solution (Solarbio, Cat #: C1058) was added to terminate the reaction, and the optical density at 450 nm (OD450 nm) was determined by an ELISA plate reader (Molecular Devices, Spectra max 384 plus).

CRH (NT-Biotin) = molecular target: T3, CRH (NT-Biotin) (human and mouse, not fully specified; biotin at the N-terminus); assay: ELISA, N-terminally biotinylated CRH on streptavidin-coated plate
T3 construct: also called Biotin-CRH; N-terminally biotinylated corticotropin-releasing hormone
T3 peptide: T1 peptide
Procedure: as §1

[2] = molecular target: T4, corticotropin-releasing hormone (CRH) peptide (human and mouse (same sequence), not fully specified); assay: cell-based or functional assay
T4 peptide: T1 peptide

[3] = molecular target: T4, corticotropin-releasing hormone (CRH) …; assay: cell-based or functional assay

hCRHR1 Luciferase Reporter Assay IC50 [2]: 7.23 nM
B3: PR302309-13 (antibody, human IgG1, kappa, V domains shown)
VH: QVQLVQSGSELKKPGASVKVSCKASGYTFTNYGMNWVRQAPGQGLEWMGWINTYTGEPIYTDDFKGRFVFSLDTSVSTAYLQISSLKAEDTAVYYCARSTMITTGGVFAYWGQGTLVTVSS
VL: DVLMAQTPLSLPVSLGDQASISCRSSQTIVHSDGNTYLEWYLQKPGQSPKLLIYKVSNRFSGVPDRFSGSGSGTDFTLKISRVEAEDLGVYYCFQGSHVPWTFGGGTKLEIKR

hCRHR1 Luciferase Reporter Assay IC50 [2]: 5.47 nM
B4: PR302309-16 (antibody, human IgG1, kappa, V domains shown)
VH: QIQLVQSGAEVKKPGASVKVSCKASGYTFTNYGMNWVRQAPGQRLEWMGWINTYTGEPIYTDDFKGRVTITLDTSASTAYMELSSLRSEDTAVYYCSRSTMITTGGVFAYWGQGTLVTVSS
VL: B3 VL

hCRHR1 Luciferase Reporter Assay IC50 [2]: 1.68 nM
B5: PR302309-14 (antibody, human IgG1, kappa, V domains shown)
VH: B3 VH with V2I, A97S
VL: B3 VL

hCRHR1 Luciferase Reporter Assay IC50 [2]: 10.5 nM
B6: PR302309-15 (antibody, human IgG1, kappa, V domains shown)
VH: B4 VH with I2V, L72R, S97A
VL: B3 VL

hCRHR1 Luciferase Reporter Assay IC50 [2]: 6.69 nM
B9: PR302309-17 (antibody, human IgG1, kappa, V domains shown)
VH: B3 VH
VL: B3 VL with L3V, A5T, T7S, S14T, D17Q, Q18P, L42Q, K44R, K50R, L109V

hCRHR1 Luciferase Reporter Assay IC50 [2]: 8.44 nM
B10: PR302309-21 (antibody, human IgG1, kappa, V domains shown)
VH: B4 VH
VL: DVVMTQTPLSSPVTLGQPASISCRSSQTIVHSDGNTYLEWYQQRPGQPPRLLIYKVSNRFSGVPDRFSGSGAGTDFTLKISRVEAEDLGVYYCFQGSHVPWTFGGGTKVEIKR

hCRHR1 Luciferase Reporter Assay IC50 [2]: 6.08 nM
B11: PR302309-9 (antibody, human IgG1, kappa, V domains shown)
VH: B3 VH with V2I, A97S
VL: B10 VL with V2I, S11L, P12S, L15P, Q42L, R44K, P48S, R50Q, A72S, L88V

hCRHR1 Luciferase Reporter Assay IC50 [2]: 3.2 nM
B12: PR302309-10 (antibody, human IgG1, kappa, V domains shown)
VH: B3 VH with V2I, A97S
VL: B10 VL with S11L, P12S, L15P, Q42L, R44K, P48S, R50Q, A72S

hCRHR1 Luciferase Reporter Assay IC50 [2]: 1.73 nM
B13: PR302309-18 (antibody, human IgG1, kappa, V domains shown)
VH: B4 VH with I2V, L72R, S97A
VL: B10 VL with T7S, S11L, P48S, A72S

hCRHR1 Luciferase Reporter Assay IC50 [2]: 2.12 nM
B15: PR302309-11 (antibody, human IgG1, kappa, V domains shown)
VH: B3 VH with V2I, A97S
VL: B10 VL with V2I, Y41L, L88V

hCRHR1 Luciferase Reporter Assay IC50 [2]: 3.07 nM
B16: PR302309-20 (antibody, human IgG1, kappa, V domains shown)
VH: B4 VH
VL: B10 VL with S11L, P12S, L15P, Q42L, R44K, P48S, R50Q, A72S

hCRHR1 Luciferase Reporter Assay IC50 [2]: 4.83 nM
B23: PR302309-19 (antibody, human IgG1, kappa, V domains shown)
VH: B4 VH
VL: B10 VL with T7S, S11L, P48S, A72S

hCRHR1 Luciferase Reporter Assay IC50 [2]: 4.47 nM
B24: PR302309-12 (antibody, human IgG1, kappa, V domains shown)
VH: B3 VH with V2I, A97S
VL: B10 VL

hCRHR1-Luc 0.5 nM CRH IC50 [3]: 1.36 nM
hCRHR1 Luciferase Reporter Assay IC50 [3]: 1.36 nM
mCrhr1 Luciferase Reporter Assay IC50 [3]: 2.27 nM
B29: PR302334-27 (antibody, human IgG1, kappa, V domains shown)
VH: EVQLVESGGGLVQPGGSLRLSCAASGFTFSTYAMSWVRQAPGKGLEWVASIRSGGTTYYPDSVKGRFTISRDNSKNSLYLQMNSLRAEDTAVYYCTRGIDWGQGTTVTVSS
VL: DIQMTQSSLSASVSLGDRVTITCKASQSVNNDVAWYQQKPGKAPRLLIYYASNRYTGVPSRFSGSGSGTDFTFTISSLQPEDLATYFCQQDYSSWTFGGGTKVEIKR

Further lines, the binder ahead of its results:

B1: PR004289 (antibody, human IgG1, kappa, V domains shown)
VH: EVQLVESGGVLVQPGGSLRLSCAASGFIFSSYWMTWVRQAPGKGLEWVANIKQDGSEKYYVDSVKGRFTISRDNAKNSLFLQMNSLRAEDTAVYYCARTLIFDYWGQGTLVTVSS
VL: DIVMTQSPLSLPVTPGEPASISCRSSQSLLHSTGYNSLEWYLQKPGQSPQLLIYLGSNRASGVPDRFSGSGSGTDFTLKISRVEAEDVGIYYCMQTLQTPITFGQGTRLEIKR
notes: Expressed recombinantly with human IgG1 wildtype Fc; also called Hybridoma Clone 16g2; Series 1 mAb
hCRHR1 Reporter IC50 [1]: 3.13 nM
EC50 (CRH (CT-Biotin)): 0.023 nM
EC50 (CRH (NT-Biotin)): 0.023 nM

B2: PR006669 (antibody, human IgG1, kappa, V domains shown)
VH: EVQLVESGGGLVQPGGSLRLSCAASGFTFSDNWMSWVRQAPGKGLEWVANIKQDGSENYYVDSVKGRFTISRDNAKNSLYLQMNSLRAEDTAVYYCSRGLALWGWGQGTLVTVSS
VL: B1 VL with Q6H, E17D, S37Y, E39D, I80F, S81I, I90V, T96A, I101Y, R108K
hCRHR1 Reporter IC50 [1]: 7.38 nM

B7: PR301612 (antibody, human IgG1, kappa, V domains shown)
VH: EVKLEESGGGLVQPGGSIKLSCVASGFTFSGAWMAWVRQSPEKGLEWVAEIKNKANNHATFYAESVKGRFIISRDDSKSSVYLQMNSLRAEDTGTYYCTLPDVWGTGTTVTVSS
VL: QIVLTQSPAIMSASPGERVTISCSASSSVSNMYWYLQKPGSSPKPWIYRTSNLASGVPARFSGSGSGTSYSLTISSMEAEDVATYYCQQYHSFPRTFGGGTKLEIKR
notes: Mouse variable domains, expressed recombinantly with human IgG1 wildtype Fc; also called Series 4 mAb
hCRHR1 Reporter IC50 [1]: 18.1 nM
EC50 (CRH (CT-Biotin)): 0.033 nM

B8: PR302309-1 (antibody, human IgG1, kappa, V domains shown)
VH: QIQLVQSGPELKKPGETVKISCKASGYTFTNYGMNWVKQAPGKVLKWMGWINTYTGEPIYTDDFKGRFAFSLETSASTAYLQINNLKNEDTATYFCSRSTMITTGGVFAYWGQGTLVTVSA
VL: B10 VL with T7S, S11L, Y41F, P48S, L51R, A72S, L88V
hCRHR1 Luciferase Reporter Assay IC50 [2]: 4.42 nM

B14: PR302309-2 (antibody, human IgG1, kappa, V domains shown)
VH: B8 VH
VL: B10 VL with T7S, S11L, P48S, A72S
hCRHR1 Luciferase Reporter Assay IC50 [2]: 0.773 nM

B17: PR302309-3 (antibody, human IgG1, kappa, V domains shown)
VH: B8 VH
VL: B10 VL with V2I, S11L, P12S, L15P, Q42L, R44K, P48S, R50Q, A72S, L88V
hCRHR1 Luciferase Reporter Assay IC50 [2]: 2.22 nM

B18: PR302309-4 (antibody, human IgG1, kappa, V domains shown)
VH: B8 VH
VL: B10 VL with S11L, P12S, L15P, Q42L, R44K, P48S, R50Q, A72S
hCRHR1 Luciferase Reporter Assay IC50 [2]: 1.26 nM

B19: PR302309-5 (antibody, human IgG1, kappa, V domains shown)
VH: B8 VH
VL: B10 VL with V2I, Y41L, L88V
hCRHR1 Luciferase Reporter Assay IC50 [2]: 0.454 nM

B20: PR302309-7 (antibody, human IgG1, kappa, V domains shown)
VH: B3 VH with V2I, A97S
VL: B10 VL with T7S, S11L, Y41F, P48S, L51R, A72S, L88V
hCRHR1 Luciferase Reporter Assay IC50 [2]: 6.38 nM

B21: PR302309-8 (antibody, human IgG1, kappa, V domains shown)
VH: B3 VH with V2I, A97S
VL: B10 VL with T7S, S11L, P48S, A72S
hCRHR1 Luciferase Reporter Assay IC50 [2]: 1.7 nM

B22: PR302309-6 (antibody, human IgG1, kappa, V domains shown)
VH: B8 VH
VL: B10 VL
hCRHR1 Luciferase Reporter Assay IC50 [2]: 1.08 nM

B25: PR301788 (antibody, human IgG1, kappa, V domains shown)
VH: EMKLEESGGGLVQPGGSMKLSCVASGFTFSNYWMNWVRQSPEKGLEWVAEIRLKSNNYATHYAESVKGRFTISRDDSKSSVYLQMNNLRAEDTGIYYCTIGTLVYWGQGTLVTVSA
VL: DIVLTQSPASLAVSLGQRATISCRASQSVSTSTYNYMHWFQQKPGQPPKLLIKFASNLESGVPARFSGSGSGTDFTLNIHPVEEEDTATFYCQHSWEIPYTFGGGTKLEIKR
notes: Mouse variable domains, expressed recombinantly with human IgG1 wildtype Fc; also called Series 5 mAb
hCRHR1 Reporter IC50 [1]: 0.46 nM
EC50 (CRH (CT-Biotin)): 0.011 nM
EC50 (CRH (NT-Biotin)): 0.018 nM

B26: PR301777 (antibody, human IgG1, kappa, V domains shown)
VH: B25 VH with S80G, R89G, I100V
VL: B25 VL
notes: as for B25
hCRHR1 Reporter IC50 [1]: 0.609 nM
EC50 (CRH (CT-Biotin)): 0.038 nM
EC50 (CRH (NT-Biotin)): 0.027 nM

B27: PR301790 (antibody, human IgG1, kappa, V domains shown)
VH: B25 VH
VL: B25 VL with T33S, F40Y
notes: as for B25
hCRHR1 Reporter IC50 [1]: 0.055 nM
EC50 (CRH (CT-Biotin)): 0.019 nM
EC50 (CRH (NT-Biotin)): 0.017 nM

B28: PR301306 (antibody, human IgG1, kappa, V domains shown)
VH: B25 VH with M2V, H61L, I100R
VL: B25 VL with T33D, F40Y, F54Y, F90Y
notes: Mouse variable domains, expressed recombinantly with human IgG1 wildtype Fc; also called Series 3 mAb
hCRHR1 Reporter IC50 [1]: 35.6 nM
EC50 (CRH (CT-Biotin)): 0.037 nM
EC50 (CRH (NT-Biotin)): 0.094 nM
